Results on one substance are retold here after PMC3683130.

In this experiment the target is FLAG-tagged PUD-1 (C. elegans). The experiment is described as follows: affinity purification with mass spectrometry; anti-FLAG IP (M2 beads) from worms with single-copy FLAG::PUD-1, N2 as control; eluted with 3xFLAG peptide; silver-stained bands cut and identified by LC-MS/MS.
FLAG-tagged PUD-1 (C. elegans), sequence (main, as listed by the source): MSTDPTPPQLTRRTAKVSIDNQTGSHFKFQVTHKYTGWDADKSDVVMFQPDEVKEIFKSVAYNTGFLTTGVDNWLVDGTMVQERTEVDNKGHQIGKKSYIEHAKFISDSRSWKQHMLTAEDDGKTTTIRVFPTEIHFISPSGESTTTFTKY

In the case of Endogenous PUD-2 (natural protein), the stoichiometry N worked out at 1.
